Data as given in article PMC5708649, “A novel Porphyromonas gingivalis enzyme: An atypical dipeptidyl peptidase III with an ARM repeat domain” (PLoS ONE, 2017).

Columns and labels:
[1] = system: E. coli BK2118 (tag, alkA); test: MMS complementation assay; type: cell-based, Escherichia coli; conditions: pUC18 constructs, 1 mM to 5 mM MMS plates, 2 days, 37°C
[2] = Thermal denaturation by circular dichroism; type: physicochemical; conditions: thermal denaturation curves, CD
Description: Secondary structure and temperature stability of recombinant proteins were determined by recording circular dichroism spectra (CD) on a Jasco J-815 spectropolarimetar (JASCO, Easton, MD, USA) with automatic temperature control according to Jajčanin-Jozić et al.. Analysis of protein secondary structure from CD spectra was performed by using the CDSSTR program at the DICHROWEB site (http://public-1.cryst.bbk.ac.uk/cdweb/html). Protein concentrations were determined by the Bradford method.

B1: PgDPP III: full-length dipeptidyl peptidase III from P. gingivalis W83 (PG_0317), 886 aa (protein)
chain: MTKETTQHRSGERIARFADIEVLSYRADLFGTLTPKQRMLCYHLSEAALRGRDITTIQNCRYNLWVRSLMERIYTHLSKSERTDDFALLEEYLFCIWFANGIHHHYSGAKFIARFSPGFLRAALREAGVELEPEEQVLLERVLYDTDFLPKQTEQSGEEDIIKASSVNFYAPGITRAEAESHYKNLIEALPENEKSCPPSFGLNTRLIRSTSGELKDEVCCIDGLYGPAIEAVVASLEAAIPYTENEEQAACIRLLCDYYRTGDIRLYDRFCIRWVENNRTRIDFINGFTEVYADPIGIHGSWEGLVHMQDEEAGRRTRIISEHAGWFEAHSPIDARFRKKNPHGISATVVNVLTIAGDSYPATPIGINLPNADWIRAEHGSKSVTIDNITDAYNHAARGTGLYEEFIPDEEVRRHVELHADLTDSLHTDLHECLGHGSGQLLPGVPGDALGEHASTLEETRADLFALYFLADPKMIELGLLTDPDAYKANYYKYMLNGLMTQLVRIKRGEEIEEAHMRNRALIARYVLEHAERPGAMSLVCEEGKTALVIKDYEAVRAIIAGLLTEVQRIKSEGDYTAGKALVERYAVHVDPLLHEEVLTRYAKLDIAPYKGFVNPRLRPVYNSEGRLTDATIEYTEGYAEQMLRYSAEYSFLPTDSPLLQEARRLRSHLRRAMDGVLSASMREKGLHYGINFGVTREHLLRLARTADASAPLADYLWRRDVRETKILATMIFPAEELTHEQATRLLREADNVELREQLTANLLERMPEAIRSIGRWIESKETTPDMMTGVLTLAARLFTRGIFPEDVPAEKLLTLAILHLSDEEQKAELRRASALLLKRYGRGSAERTKKVLCLLPESSQDTAPVLYELCEDIRFELDFYPKDE
modifications: left off: His tag, C-terminal, state not stated
rescue of alkylation-sensitive phenotype / alkylation repair function (in words) [1]: absence of any alkylation repair function
rescue of alkylation-sensitive phenotype / alkylation repair function (in words) ([1]; listed as full length PgDPP III): does not possess alkylation repair function
Tm [2]: 50 °C
